This data set is described as follows: yeast display, Sf9 membrane polyspecificity reagent, FACS + sequencing; frameworks hold sequencing errors. In short, it runs like this: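 Galactose induction of a Saccharomyces cerevisiae BJ5465 synthetic nanobody display library ran 36–48 hours. The cells were then stained for 1 hour at 4 °C with 10% biotinylated, detergent-solubilized Sf9 membrane reagent, pulled down on streptavidin microbeads and FACS-sorted into low and high (top ~1%) gates on expression and reagent-binding fluorescence. Labels for polyreactivity follow the gate of origin.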
For the sequence “QVQLVESGGGLVQARGSLRLSCAASGFIFASNAMGWYRQAPGKERELVAAITKSGGRTYYADSVKARFTISRDTAKNTVYLQMNSLKPVDTAVYYCAAKVRVVHRPYDHWGQGTQVTVSS”, the “polyreactivity (PSR sort gate)” value is given as “high polyreactivity”.
“QVQLVESGGGLVQARGSLRLSCAASGFTFGYNAMGWYRKAPGTERELVAVITQSGGRTYYADSVKGRFTISRDNANNSVYLQMNSLKPEDTAVYYCAARYRLAPYYYWGQGTQVTVSS”: the “polyreactivity (PSR sort gate)” value is on record as “high polyreactivity”.
Then “QVQLVESGGGLVQARGSLRLSCAASGLTFRIYAMGWYRQAPGKERELVAAITRGGSTYADSVKGRFTISRDNAKNTVYLQMNSLKPEDTAVYYCAARVRSTSQVSASPVWYYYWGLGTQVTVSS”, with “high polyreactivity”; and “QVQLVESGGGLVQARGSLRLSCAASGNTFPSYAMGWYRQAHGKERELVAAITSGGRTYYADSVNGRFTISRDNAKNTVYLQLNSLKPEDTAVYYCAAEWVVRYPWYRYYYWGQGTEVTVSS”, with “high polyreactivity”; and “QVQLVESGGGLVQARGSLRLSCAASGRIFKYNAMGWYRQAPGKESELVAAISGGGSTNYADSVKGRFTISRDNAKNTVYLLMNSLKPEDTAVYYCAKGYRRVYGPFYYWGQGTQVTVSS”, with “low polyreactivity”.
Then “QVQLVESGGGLVQARGSLRLSCAASGRIFPGYAMGWYRQAPGKERELVAGISNDASTNYADSVKGRFTISRDNAKNTVYLQMNSLKPEDTAVYYCAAEISSLSFPRYDYWGQGTQVTVSS”, with “low polyreactivity”.
The value for “QVQLVESGGGLVQARGSLRLSCAASGRIFVINAMGWYRQAPGKERELVAAISQSGGSTYYADSVKGRFTISRDNAKNTVYLQMNSLKPEDTAVYYCNALSNVPYDYWGQGTLVTVSS” was “low polyreactivity”; that for “QVQLVESGGGLVQARGSLRLSCAASGRIFYFYAMGWYRQAPGKERELVAAITESTSSTYYADSVKGRFTISRDNAKNTVYLQMNSLKPEDTAVYYCAARVSQWLPYGGSSRYYYWGQGTQVTVSS” was “high polyreactivity”.
Consider “QVQLVESGGGLVQARGSLRLSCAASGRTFGGYARGWYRQAPGKERELVATISKRAGSTYYADSVKGRFTISRDHAKNTVYLQMNSLKPEDTAVYYCAKVKSARYQEYEYWGQGTQVTVSS”, for which the “polyreactivity (PSR sort gate)” value is on record as “high polyreactivity”.
Then “QVQLVESGGGLVQARGSLRLSCAASGSIFDDYAMGWYRQAPGKERELVAAISSSGTSTYYADSVKGRFTISRDNAKNTVYLQLNSLKPEDTAVYYCAARSAILKSGYLMEYWGEGTQVTVSS”, with “low polyreactivity”; and “QVQLVESGGGLVQARGSLRLSCAASGSIFQYNAMGWYRQAPGKERELVAAINGGGSTYYADSVKGRFTISRNNAKNTVYLQLTSLNPEDTAVYYCNADAMDEDWRGYWGQGTQVTVSS”, with “low polyreactivity”; and “QVQLVESGGGLVQARGSLRLSCAASGSIFYGNAMGWYRQAHGKERELVAAISQSGGSTYYADSVKGRFTISRDNAKNTVYLQMNSLKPEDTAVYYCAAYTPYATWRYDYWGQGTQVTVSS”, with “low polyreactivity”.
The value for “QVQLVESGGGLVQARGSLRLSCAASGSTFGGYAMGWYRKAPGKERELVASISAIGGSTYYADSVKGRFTISRDNAKNTFYLQMNSMKPEDTAVYYCAAQRGGGPNDYWGQGTQVTVSS” was “high polyreactivity”.
The value for “QVQLVESGGGLVQARGSLRLSCAASGSTFGWYAMGWYREAPGKERELVAAIYRGGGSTYYADSVKVRFTISRDNAMNTVYLQMNSLKPEDTAVYYCAAYSYYQGGMDYWGEGTQVTVSS” was “high polyreactivity”.
On to “QVQLVESGGGLVQARGSLRLSCAASGSTFVGYAMGWYRQAPGKEREFVAAITRGGSTNYADSVKGRFTISRDNAKNTVYLQMNSLKPEDTAVYYCAARDRREGFNFDYWGQGTQVTVSS”, for which the “polyreactivity (PSR sort gate)” value is “low polyreactivity”.
Then “QVQLVESGGGLVQARGSLRLSCAASGSTLRRYAMGWYRQAPGKERELVAAISGSGDSTYYADSVKGRFTISRDNAKNTVYLQMNSLKPEDTAVYYCNAVYAFNGYDYWGQGSQVTVSS”, with “low polyreactivity”.

Values taken from the nanobody polyreactivity screen of Harvey et al. (2022).
